Changes are numbered by the printed parent chain.
What was measured:
FcRn (Acro Biosystems) = FcRn (Acro Biosystems) (human, UniProt P55899 24-297; P61769 21-119); assay: BLI (Fortebio), FcRn loaded on HIS1K probe, pH 7.0
Procedure: (§1) The variant proteins were tested for affinity to FcRn at pH 7.0. The affinity of the antibody fragment for the receptor was determined using Fortebio. FcRn (Acro Biosystems) was loaded at 0.8 nm with an HIS1K probe, bound to the variant protein at various concentrations for 60 seconds and dissociated for 300 seconds.

FcγRI (Acro Biosystems) [1] = molecular target: T1, FcγRI (Acro Biosystems) (UniProt P12314 16-288, limits assumed); assay: BLI (Fortebio), FcγR loaded on HIS1K probe, pH 7.0
T1 construct: also called CD64
T1 sequence (P12314 16-288 limits assumed): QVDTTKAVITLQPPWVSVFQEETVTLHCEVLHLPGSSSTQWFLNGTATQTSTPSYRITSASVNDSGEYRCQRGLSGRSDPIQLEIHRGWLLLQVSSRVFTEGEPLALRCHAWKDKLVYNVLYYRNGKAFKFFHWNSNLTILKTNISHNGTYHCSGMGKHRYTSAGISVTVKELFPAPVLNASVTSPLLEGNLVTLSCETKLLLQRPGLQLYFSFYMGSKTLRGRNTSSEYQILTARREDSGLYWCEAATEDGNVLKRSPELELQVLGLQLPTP
Procedure: as §1, with “to FcγRI, FcγRIIa-131H, FcγRIIa-131R, FcγRIIb, FcγRIIIa-158F, FcγRIIIa-158V” for “to FcRn”, “Fortebio. Different FcγR” for “Fortebio. FcRn”, “at 0.5” for “at 0.8”, “for 60” for “for 300”

[2] = molecular target: T2, FcγRIIa-131H (Acro Biosystems) (UniProt P12318 36-218, limits assumed); assay: BLI (Fortebio), FcγR loaded on HIS1K probe, pH 7.0
T2 construct: The 131H/R allotypes are those of the human receptor
T2 sequence (looked up): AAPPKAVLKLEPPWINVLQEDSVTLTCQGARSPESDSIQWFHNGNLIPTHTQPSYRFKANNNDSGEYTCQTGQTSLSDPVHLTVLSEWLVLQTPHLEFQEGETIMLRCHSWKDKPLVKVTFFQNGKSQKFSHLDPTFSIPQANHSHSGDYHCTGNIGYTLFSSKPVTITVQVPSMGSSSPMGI
Procedure: as §1, with “to FcγRI, FcγRIIa-131H, FcγRIIa-131R, FcγRIIb, FcγRIIIa-158F, FcγRIIIa-158V” for “to FcRn”, “Fortebio. Different FcγR” for “Fortebio. FcRn”, “at 0.5” for “at 0.8”, “for 60” for “for 300”

[3] = molecular target: T3, FcγRIIa-131R (Acro Biosystems) (UniProt P12318 36-218, limits assumed); assay: BLI (Fortebio), FcγR loaded on HIS1K probe, pH 7.0
T3 construct: The 131H/R allotypes are those of the human receptor
T3 sequence (looked up): T2 sequence (looked up) with H132R
Procedure: as §1, with “to FcγRI, FcγRIIa-131H, FcγRIIa-131R, FcγRIIb, FcγRIIIa-158F, FcγRIIIa-158V” for “to FcRn”, “Fortebio. Different FcγR” for “Fortebio. FcRn”, “at 0.5” for “at 0.8”, “for 60” for “for 300”

[4] = molecular target: T4, FcγRIIIa-158V (Acro Biosystems) (UniProt P08637 17-208); assay: BLI (Fortebio), FcγR loaded on HIS1K probe, pH 7.0
T4 construct: The 158V/F allotypes are those of the human receptor
T4 sequence (P08637 17-208 F176V limits assumed): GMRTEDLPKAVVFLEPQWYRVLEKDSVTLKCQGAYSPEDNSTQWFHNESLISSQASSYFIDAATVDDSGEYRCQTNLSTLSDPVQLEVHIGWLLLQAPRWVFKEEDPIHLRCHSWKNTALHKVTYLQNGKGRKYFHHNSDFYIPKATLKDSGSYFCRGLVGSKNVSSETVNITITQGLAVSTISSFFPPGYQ
Procedure: as §1, with “to FcγRI, FcγRIIa-131H, FcγRIIa-131R, FcγRIIb, FcγRIIIa-158F, FcγRIIIa-158V” for “to FcRn”, “Fortebio. Different FcγR” for “Fortebio. FcRn”, “at 0.5” for “at 0.8”, “for 60” for “for 300”

[5] = molecular target: T5, FcγRIIIa-158F (Acro Biosystems) (UniProt P08637 17-208); assay: BLI (Fortebio), FcγR loaded on HIS1K probe, pH 7.0
T5 construct: The 158V/F allotypes are those of the human receptor
T5 sequence (P08637 17-208 limits assumed): as the sequence (P08637 17-208 F176V limits assumed) above, with V160F counted along it
Procedure: as §1, with “to FcγRI, FcγRIIa-131H, FcγRIIa-131R, FcγRIIb, FcγRIIIa-158F, FcγRIIIa-158V” for “to FcRn”, “Fortebio. Different FcγR” for “Fortebio. FcRn”, “at 0.5” for “at 0.8”, “for 60” for “for 300”

[6] = molecular target: T6, FcγRIIb (Acro Biosystems) (UniProt P31994 46-217, limits assumed); assay: BLI (Fortebio), FcγR loaded on HIS1K probe, pH 7.0
T6 sequence (looked up): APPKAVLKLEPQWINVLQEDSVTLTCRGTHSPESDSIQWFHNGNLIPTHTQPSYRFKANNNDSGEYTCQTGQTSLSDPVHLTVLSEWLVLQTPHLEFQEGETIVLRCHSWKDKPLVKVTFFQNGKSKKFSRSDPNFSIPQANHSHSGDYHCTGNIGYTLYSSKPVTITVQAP
Procedure: as §1, with “to FcγRI, FcγRIIa-131H, FcγRIIa-131R, FcγRIIb, FcγRIIIa-158F, FcγRIIIa-158V” for “to FcRn”, “Fortebio. Different FcγR” for “Fortebio. FcRn”, “at 0.5” for “at 0.8”, “for 60” for “for 300”

FcγRI (Acro Biosystems) [7] = molecular target: T1, FcγRI (Acro Biosystems); assay: BLI (Fortebio), ratio of KD against m1
Procedure: as §1, with “to FcγRI, FcγRIIa-131H, FcγRIIa-131R, FcγRIIb, FcγRIIIa-158F, FcγRIIIa-158V” for “to FcRn”, “Fortebio. Different FcγR” for “Fortebio. FcRn”, “at 0.5” for “at 0.8”, “for 60” for “for 300”

[8] = molecular target: T2, FcγRIIa-131H (Acro Biosystems); assay: BLI (Fortebio), ratio of KD against m1
Procedure: as §1, with “to FcγRI, FcγRIIa-131H, FcγRIIa-131R, FcγRIIb, FcγRIIIa-158F, FcγRIIIa-158V” for “to FcRn”, “Fortebio. Different FcγR” for “Fortebio. FcRn”, “at 0.5” for “at 0.8”, “for 60” for “for 300”

[9] = molecular target: T3, FcγRIIa-131R (Acro Biosystems); assay: BLI (Fortebio), ratio of KD against m1
Procedure: as §1, with “to FcγRI, FcγRIIa-131H, FcγRIIa-131R, FcγRIIb, FcγRIIIa-158F, FcγRIIIa-158V” for “to FcRn”, “Fortebio. Different FcγR” for “Fortebio. FcRn”, “at 0.5” for “at 0.8”, “for 60” for “for 300”

[10] = molecular target: T4, FcγRIIIa-158V (Acro Biosystems); assay: BLI (Fortebio), ratio of KD against m1
Procedure: as §1, with “to FcγRI, FcγRIIa-131H, FcγRIIa-131R, FcγRIIb, FcγRIIIa-158F, FcγRIIIa-158V” for “to FcRn”, “Fortebio. Different FcγR” for “Fortebio. FcRn”, “at 0.5” for “at 0.8”, “for 60” for “for 300”

[11] = molecular target: T5, FcγRIIIa-158F (Acro Biosystems); assay: BLI (Fortebio), ratio of KD against m1
Procedure: as §1, with “to FcγRI, FcγRIIa-131H, FcγRIIa-131R, FcγRIIb, FcγRIIIa-158F, FcγRIIIa-158V” for “to FcRn”, “Fortebio. Different FcγR” for “Fortebio. FcRn”, “at 0.5” for “at 0.8”, “for 60” for “for 300”

[12] = molecular target: T6, FcγRIIb (Acro Biosystems); assay: BLI (Fortebio), ratio of KD against m1
Procedure: as §1, with “to FcγRI, FcγRIIa-131H, FcγRIIa-131R, FcγRIIb, FcγRIIIa-158F, FcγRIIIa-158V” for “to FcRn”, “Fortebio. Different FcγR” for “Fortebio. FcRn”, “at 0.5” for “at 0.8”, “for 60” for “for 300”

Chain of FcRn (Acro Biosystems) (P55899 24-297 limits assumed, chain 1 of 2): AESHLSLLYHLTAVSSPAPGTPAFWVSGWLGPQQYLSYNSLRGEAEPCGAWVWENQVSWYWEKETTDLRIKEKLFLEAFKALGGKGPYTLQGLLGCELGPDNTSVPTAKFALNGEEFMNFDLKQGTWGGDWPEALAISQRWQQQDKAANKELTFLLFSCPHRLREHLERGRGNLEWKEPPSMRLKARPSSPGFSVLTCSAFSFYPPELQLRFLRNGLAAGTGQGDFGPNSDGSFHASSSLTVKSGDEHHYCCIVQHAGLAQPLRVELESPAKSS
Chain of FcRn (Acro Biosystems) (P61769 21-119 limits assumed, chain 2 of 2): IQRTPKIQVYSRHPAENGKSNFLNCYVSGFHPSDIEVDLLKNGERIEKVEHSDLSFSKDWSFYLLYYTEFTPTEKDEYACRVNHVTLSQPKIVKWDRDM

B1: Fc variant m1 (other)
chain: DKTHTCPPCPAPELLGGPSVFLFPPKPKDTLYITREPEVTCVVVDVSHEDPEVKFNWYVDGVEVHNAKTKPREEQYNSTYRVVSVLTVLHQDWLNGKEYKCKVSNKALPAPIEKTISKAKGQPREPQVYTLPPSRDELTKNQVSLTCLVKGFYPSDIAVEWESNGQPENNYKTTPPVLDSDGSFFLYSKLTVDKSRWQQGNVFSCSVMHEALKFHYTQKSLSLSP
modifications: N-glycan with 2,6-sialic acid (variant co-expressed with human GT and ST in ExpiCHO-S cells)
notes: also called control m1
kon (FcRn (Acro Biosystems)): 214000 M⁻¹ s⁻¹ | Kd (FcγRI (Acro Biosystems) [1]): 316 nM | Kd [2]: 2560 nM | Kd [3]: 2050 nM | Kd [4]: 1710 nM | Kd [5]: 7210 nM | Kd [6]: 10700 nM

B2: Fc variant m4 (other)
chain: B1 chain with F23A
modifications: N-glycan with 2,6-sialic acid (variant co-expressed with human GT and ST in ExpiCHO-S cells)
notes: Fc fragment variant of IgG1
kon (FcRn (Acro Biosystems)): 298000 M⁻¹ s⁻¹

B3: Fc variant m3 (other)
chain: B1 chain with F21A
modifications: N-glycan with 2,6-sialic acid (variant co-expressed with human GT and ST in ExpiCHO-S cells)
notes: Fc fragment variant of IgG1
kon (FcRn (Acro Biosystems)): 272000 M⁻¹ s⁻¹

B4: Fc variant m10 (other)
chain: B1 chain with S78N, T79A, Y80S
notes: Fc fragment variant of IgG1, co-expressed with human GT and ST
kon (FcRn (Acro Biosystems)): 221000 M⁻¹ s⁻¹

B5: Fc variant m8 (other)
chain: B1 chain with Y76A
notes: as for B4
kon (FcRn (Acro Biosystems)): 115000 M⁻¹ s⁻¹

B6: Fc variant m11 (other)
chain: B1 chain with Y80A
modifications: N-glycan with 2,6-sialic acid (variant co-expressed with human GT and ST in ExpiCHO-S cells)
notes: Fc fragment variant of IgG1
kon (FcRn (Acro Biosystems)): 38300 M⁻¹ s⁻¹

B7: Fc variant m7 (other)
chain: B1 chain with V44E
modifications: N-glycan with 2,6-sialic acid (variant co-expressed with human GT and ST in ExpiCHO-S cells)
notes: Fc fragment variant of IgG1
Fold change of m7 relative to m1 (FcγRI (Acro Biosystems) [7]): 4.95 fold | kon (FcRn (Acro Biosystems)): 221000 M⁻¹ s⁻¹ | Kd (FcγRI (Acro Biosystems) [1]): 63.8 nM

B8: Fc variant m6 (other)
chain: B1 chain with V44A
modifications: N-glycan with 2,6-sialic acid (variant co-expressed with human GT and ST in ExpiCHO-S cells)
notes: Fc fragment variant of IgG1
Fold change of m6 relative to m1 (FcγRI (Acro Biosystems) [7]): 0.99 fold | Fold change of m6 relative to m1 [8]: 1 fold | Fold change of m6 relative to m1 [9]: 1.46 fold | Fold change of m6 relative to m1 [10]: 0.97 fold | Fold change of m6 relative to m1 [11]: 0.75 fold | Fold change of m6 relative to m1 [12]: 1.57 fold | kon (FcRn (Acro Biosystems)): 212000 M⁻¹ s⁻¹ | Kd (FcγRI (Acro Biosystems) [1]): 319 nM | Kd [2]: 2560 nM | Kd [3]: 1400 nM | Kd [4]: 1760 nM | Kd [5]: 9670 nM | Kd [6]: 6820 nM

B9: Fc variant m9 (other)
chain: B1 chain with Y76N, N77A
notes: as for B4
kon (FcRn (Acro Biosystems)): 208000 M⁻¹ s⁻¹

B10: Fc variant m5 (other)
chain: DKTHTCPPCPAPELLGGPSVFLFPPKPKDTLYITREPEVTCVVVDVSHEDPEVKFNWYVDGVEVHNAKTKPREQYNSTYRVVSVLTVLHQDWLNGKEYKCKVSNKALPAPIEKTISKAKGQPREPQVYTLPPSRDELTKNQVSLTCLVKGFYPSDIAVEWESNGQPENNYKTTPPVLDSDGSFFLYSKLTVDKSRWQQGNVFSCSVMHEALKFHYTQKSLSLSP
modifications: N-glycan with 2,6-sialic acid (variant co-expressed with human GT and ST in ExpiCHO-S cells)
notes: Fc fragment variant of IgG1
kon (FcRn (Acro Biosystems)): 347000 M⁻¹ s⁻¹

From patent US20250043026A1 (SHANGHAI BAO PHARMACEUTICALS, published 2025)
